Among the data in publication PMC5282649, “Binding site of restriction-modification system controller protein in Mollicutes” are binding result and Kd values, retold here.

Data set [1] addresses T1, MraZ (UniProt Q7NB78 1-142).
T1 sequence: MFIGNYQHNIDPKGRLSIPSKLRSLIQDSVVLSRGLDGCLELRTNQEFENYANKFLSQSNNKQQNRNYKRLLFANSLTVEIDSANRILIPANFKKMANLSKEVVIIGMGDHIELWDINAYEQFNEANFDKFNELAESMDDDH
The data set can be described thus: EMSA; control; 20 mM Tris-HCl pH 7.5, 100 mM KCl, 6% glycerol, 15 min at 37 °C; 20 pmol protein with 10 pmol dsDNA; 6% acrylamide gel, TB buffer pH 8.3, 10 °C, EtBr stain. Conditions: protein: recombinant; chain copies: 8. (In EMSA bound probe runs differently from free probe, usually more slowly.)

In data set [2] the target is T2, HsdC (controller protein of type I RM-system) (Mycoplasma gallisepticum S6, UniProt A0A0F6CKR7 1-64). Kind of data set: EMSA; similar or slightly weaker than PhsdC; 20 mM Tris-HCl pH 7.5, 100 mM KCl, 6% glycerol, 15 min at 37 °C; 20 pmol protein with 10 pmol dsDNA; 6% acrylamide gel, TB buffer pH 8.3, 10 °C, EtBr stain. Conditions: protein: recombinant; tags: C-terminal His-tag (pETm); chain copies: 2.

Data set [3] deals with T2, HsdC (controller protein of type I …). The data set can be described thus: EMSA titration; printed as binding constant; 20 mM Tris-HCl pH 7.5, 100 mM KCl, 6% glycerol, 15 min at 37 °C; 20 pmol protein with 10 pmol dsDNA; 6% acrylamide gel, TB buffer pH 8.3, 10 °C, EtBr stain. Conditions: protein: recombinant; tags: C-terminal His-tag (pETm); chain copies: 2.
Data set [4] addresses T1, MraZ. The data set can be described thus: EMSA; strength comparable to own site; 20 mM Tris-HCl pH 7.5, 100 mM KCl, 6% glycerol, 15 min at 37 °C; 20 pmol protein with 10 pmol dsDNA; 6% acrylamide gel, TB buffer pH 8.3, 10 °C, EtBr stain. As to conditions: protein: recombinant; chain copies: 8.

In general, Kd refers to the equilibrium constant for the complex coming apart.

B1: PmraZ (dsDNA)
DNA 1: AATTCAAAAGTGTTAAAAAGTGTGAGAAAGTGGGAAAAAT
DNA 2: ATTTTTCCCACTTTCTCACACTTTTTAACACTTTTGAATT
As to B1, the binding result in data set [1] is listed as “binds”.

B2: PclpB (dsDNA)
DNA 1: TAATAGCCTAAGTGCTAATTTTTTGTTATAATAAATCTAT
DNA 2: ATAGATTTATTATAACAAAAAATTAGCACTTAGGCTATTA
On to B2, for which, in data set [2], the binding result was “binds”.

B3: PtrnM (dsDNA)
DNA 1: ATTGTTATTATATGATAATAATGTGTAACACATCGCGGGA
DNA 2: TCCCGCGATGTGTTACACATTATTATCATATAATAACAAT
As to B3, the binding result in data set [2] was “binds”.

B4: PhsdC-WT (dsDNA)
DNA 1: TTATCGGCTTTGTGTTAAAATAGTGTTAACGATTTTGAAG
DNA 2: CTTCAAAATCGTTAACACTATTTTAACACAAAGCCGATAA
Consider B4, for which the Kd in data set [3] is approximately 5 nM. Also, the binding result in data set [4] is listed as “binds”.
